Test results: article PMC5716075, “Conserved asymmetry underpins homodimerization of Dicer-associated double-stranded RNA-binding proteins” (Nucleic Acids Research, 2017)

T1: full length (FL) PACT (protein activator of PKR) (human), O75569
T1 chain: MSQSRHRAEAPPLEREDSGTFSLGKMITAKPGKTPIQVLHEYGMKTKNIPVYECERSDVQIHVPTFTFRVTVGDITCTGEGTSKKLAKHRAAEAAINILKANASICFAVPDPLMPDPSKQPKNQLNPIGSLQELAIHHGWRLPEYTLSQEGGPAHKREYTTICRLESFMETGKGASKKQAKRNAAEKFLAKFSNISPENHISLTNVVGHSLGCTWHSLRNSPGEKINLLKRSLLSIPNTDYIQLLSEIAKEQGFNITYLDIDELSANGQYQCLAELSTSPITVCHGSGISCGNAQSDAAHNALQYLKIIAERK


Experiments:
[1] = biological target: the molecule itself; test: SEC-MALS; SEC-MALLS; Superdex S75 10/30 (except where otherwise noted), 20 mM MES pH 6.5, 200 mM NaCl, 1 mM dithiothreitol, 0.5 ml/minute; 100 μl of protein at 2–5 mg/ml injected
[2] = biological target: T1, full length (FL) PACT (protein …); test: as above; conditions: remark: other sources report otherwise

| Binder | stoichiometry N [1] | stoichiometry N [2] |
| --- | --- | --- |
| Loqs-D3 (Loquacious residues 392-463, dsRBD 3), wild type (domain or fragment, Drosophila, UniProt Q9VJY9 392-463, looked up, Loquacious (Loqs), Drosophila, residues 392-463 (dsRBD 3, Type B); also called WT Loqs-D3; source: E. coli BL21 (DE3), purified (GSTrap, tag removed with tobacco etch virus protease, size exclusion)) IDYIKLLGEIATENQFEVTYVDIEEKTFSGQFQCLVQLSTLPVGVCHGSGPTAADAQRHAAQNALEYLKIMT | 2 |  |
| PACT-Ext-D3 (PACT residues 208-313, dsRBD 3 with the conserved N-terminal extension), wild type (domain or fragment, human, UniProt O75569 208-313, looked up, also called WT PACT-Ext-D3; source: E. coli BL21 (DE3), purified (HisTrap, tag removed with 3C protease, Superdex S75); not shown: His6, N-terminal, cleaved; MBP, N-terminal, cleaved) GHSLGCTWHSLRNSPGEKINLLKRSLLSIPNTDYIQLLSEIAKEQGFNITYLDIDELSANGQYQCLAELSTSPITVCHGSGISCGNAQSDAAHNALQYLKIIAERK | 2 |  |
| full length (FL) PACT (protein activator of PKR), O75569 1-313 (natural protein) MSQSRHRAEAPPLEREDSGTFSLGKMITAKPGKTPIQVLHEYGMKTKNIPVYECERSDVQIHVPTFTFRVTVGDITCTGEGTSKKLAKHRAAEAAINILKANASICFAVPDPLMPDPSKQPKNQLNPIGSLQELAIHHGWRLPEYTLSQEGGPAHKREYTTICRLESFMETGKGASKKQAKRNAAEKFLAKFSNISPENHISLTNVVGHSLGCTWHSLRNSPGEKINLLKRSLLSIPNTDYIQLLSEIAKEQGFNITYLDIDELSANGQYQCLAELSTSPITVCHGSGISCGNAQSDAAHNALQYLKIIAERK |  | 2 |
| R353H,R354N TRBP-Ext-D3 (PACT-like variant of TRBP-Ext-D3) (domain or fragment, human, UniProt Q15633 258-366, looked up, source: E. coli BL21 (DE3), purified (HisTrap, tag removed with 3C protease, Superdex S75); not shown: His6, N-terminal, cleaved; MBP, N-terminal, cleaved) NRGPGCTWDSLRNSVGEKILSLRSCSLGSLGALGPACCRVLSELSEEQAFHVSYLDIEELSLSGLCQCLVELSTQPATVCHGSATTREAARGEAAHNALQYLKIMAGSK | 2 |  |
| PACT-D3 (PACT residues 239-313, core dsRBD 3), wild type (domain or fragment, human, UniProt O75569 239-313, looked up, Grown in M9 with 15N ammonium chloride (and 13C glucose for 3D NMR samples); also called WT PACT-D3; source: E. coli BL21 (DE3), purified (HisTrap, tag removed with 3C protease, Superdex S75); not shown: His6, N-terminal, cleaved; MBP, N-terminal, cleaved) TDYIQLLSEIAKEQGFNITYLDIDELSANGQYQCLAELSTSPITVCHGSGISCGNAQSDAAHNALQYLKIIAERK | 2 |  |
